Experimental data reported in US20260055201A1 (SHENGHE CHINA BIOPHARMACEUTICAL, published 2026).
Like-named read-outs stand apart in the source and are kept apart here.

T1: Human TNFR2 His (manufacturer: SINO, CAT: 10417-H08H) (human, UniProt P20333 23-257)
T1 construct: Bought protein; also called human TNFR2 protein; TNFR2 protein; not shown: His tag
T1 sequence (looked up): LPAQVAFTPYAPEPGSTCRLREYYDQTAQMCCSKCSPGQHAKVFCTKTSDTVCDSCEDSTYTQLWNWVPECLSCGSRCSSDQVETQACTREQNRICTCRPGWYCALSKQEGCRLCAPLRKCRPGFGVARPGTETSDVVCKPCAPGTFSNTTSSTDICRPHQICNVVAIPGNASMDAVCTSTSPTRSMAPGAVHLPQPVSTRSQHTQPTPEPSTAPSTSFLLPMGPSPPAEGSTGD

T2: Human TNFR2 mFc (manufacturer: Kaixia, CAT: TN-HM3R2) (human, UniProt P20333 23-257)
T2 construct: treated as one molecule; also called Human TNFR2 mFC (KaKa, CAT: TNF-HM3R2); human TNFR2 mFC protein; not shown: mFc part
T2 sequence (looked up): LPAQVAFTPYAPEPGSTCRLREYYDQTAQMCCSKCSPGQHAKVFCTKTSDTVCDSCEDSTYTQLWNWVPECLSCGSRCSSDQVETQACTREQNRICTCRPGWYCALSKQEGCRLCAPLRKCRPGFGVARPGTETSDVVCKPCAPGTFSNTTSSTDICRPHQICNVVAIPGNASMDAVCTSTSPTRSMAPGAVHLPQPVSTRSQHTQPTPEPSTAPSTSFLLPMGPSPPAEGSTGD

T3: human TNFR2 on TNFR2-CHO-K1 cells (human, UniProt P20333 23-461)
T3 construct: CHO cells overexpressing human TNFR2 by lentiviral transduction
T3 sequence: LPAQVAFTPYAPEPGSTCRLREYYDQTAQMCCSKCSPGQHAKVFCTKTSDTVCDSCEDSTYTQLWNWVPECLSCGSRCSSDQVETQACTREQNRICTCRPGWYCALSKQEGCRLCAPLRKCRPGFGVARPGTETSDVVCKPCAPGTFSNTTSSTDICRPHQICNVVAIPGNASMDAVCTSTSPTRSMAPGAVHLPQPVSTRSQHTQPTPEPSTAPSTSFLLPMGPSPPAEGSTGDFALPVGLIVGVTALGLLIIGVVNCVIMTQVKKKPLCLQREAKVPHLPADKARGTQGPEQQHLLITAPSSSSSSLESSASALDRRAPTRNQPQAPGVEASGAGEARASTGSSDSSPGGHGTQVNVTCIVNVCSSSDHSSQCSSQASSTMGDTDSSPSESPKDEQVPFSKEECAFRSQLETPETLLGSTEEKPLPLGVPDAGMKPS


What was measured:
[1] = molecular target: T4, human CCR8 on CCR8-CHO-K1 cells (human, UniProt P51685 1-355); test: flow cytometry on CCR8-CHO-K1 cells, APC anti-human IgG Fc secondary antibody, Average-APC
T4 construct: CHO cells overexpressing human CCR8 by lentiviral transduction
Experimental: (§1) The purified antibodies were diluted to 120 nM with FACS buffer, using this as the starting concentration, and then diluted by 5-fold gradient (6 gradients in total). […] The cells were incubated at 4° C. for 60 min, then washed twice with excess FACS buffer. Resuspended the cells in 100 μL FACS Buffer and Added Fluorescent Secondary antibody APC (Biolegend, Cat: 109306) against human IgG FC to the sample. It was incubated for 30 min and washed twice with excess FACS buffer. Resuspended the cells in flow buffer and then detected and analyzed using a flow cytometer.

[2] = molecular target: T1, Human TNFR2 His (manufacturer: SINO, …); test: bridging flow cytometry: antibody on CCR8-CHO-K1 cells captures human TNFR2 His, FITC anti-His (PBS background 15212)
Experimental: The cells after adding the sample were incubated at 4° C. for 60 min, and then washed twice with excess FACS buffer. Resuspended the cells in 100 μL FACS buffer and added FITC anti His tag (Abcam, Cat: ab1206) fluorescent secondary antibody carrying FITC to the sample. It was incubated for 30 min and washed twice with excess FACS buffer. Resuspended the cells in flow buffer and then detected and analyzed using a flow cytometer.

[3] = molecular target: T2, Human TNFR2 mFc (manufacturer: Kaixia, …); test: blocking ELISA: human TNFR2 mFc coated, antibody titrated together with human TNF alpha His (blocked ligand), anti-His detection, OD450
Experimental: (§2) The coating solution was poured off. Each well was washed with 1×PBST at 300 μL, washed 4 times with a plate washer, and patted dry on a flat paper. It was blocked with 3% skim milk powder at 300 μL/well, and incubated at 37° C. for 1 h. The blocking solution was poured off, washed 4 times with a plate washer, and patted dry on a flat paper. Negative control and positive control were set up. […] The positive control and antibody were diluted diluted to 100 nM with 3% skim milk powder as the starting concentration, and then diluted by 3-fold gradient (11 gradients in total), and a blank well was set up and only the diluent was added. […] The liquid in the well was discarded, washed 4 times with a plate washer, and patted dry on a flat paper. The anti his antibody (Abcam, Cat: ab1187) was diluted with 3% skim milk powder at 1:5000, 100 μL was added to each well, and incubated at 37° C. for 1 h. It was washed 6 times with a plate washer, and patted dry on a flat paper. TMB color developing solution was added at 100 μL/well, and wrapped with aluminum foil. Color development was performed at 37° C. in the dark for 8 min. Termination solution 1M HCl was added to terminate the color development reaction at 100 μL/well. Readings were taken at 450 nm on an ELISA reader.

[4] = molecular target: T3, human TNFR2 on TNFR2-CHO-K1 cells; test: flow cytometry on TNFR2-CHO-K1 cells, APC anti-human IgG Fc secondary antibody, Average-APC
Experimental: as §1, with “6-fold” for “5-fold”, “(7” for “(6”, “buffer” for “Buffer”, “added fluorescent secondary” for “Added Fluorescent Secondary”

[5] = molecular target: T2, Human TNFR2 mFc (manufacturer: Kaixia, …); test: blocking ELISA: human TNFR2 mFc coated, antibody titrated together with human TNF alpha His (blocked ligand), anti-His detection, OD450; remark: listed apart in the source
Experimental: as §2

| Binder | binding result [1] | Average FITC-A [2] | IC50 (read off the curve) [3] | EC50 (read off the curve) [4] | IC50 (read off the curve) [5] | EC50 (read off the curve) [1] |
| --- | --- | --- | --- | --- | --- | --- |
| TR-H (bispecific antibody, human IgG1, kappa, also called antibody TR-H) light: EVQLVESGGGLVQPGGSLRLSCAASGSRLDYYAVAWFRQAPGKEREEVSCITYSGGSTNYAESVKGRFTISRDNSKNTLYLQMNSLRAEDTAVYYCTTEPYGSSCPLSGYDTWGQGTLVTVSSGGGGSGGGGSGGGGSDIVMTQSPPTLSLSPGERATLSCRSSKSLLHSNGNTYLYWFQQKPGQSPQLLIYRMSNLASGIPDRFSGSGSGTDFTLTISRLEPEDFAVYYCMQHLEYPFTFGQGTKLEIKRTVAAPSVFIFPPSDEQLKSGTASVVCLLNNFYPREAKVQWKVDNALQSGNSQESVTEQDSKDSTYSLSSTLTLSKADYEKHKVYACEVTHQGLSSPVTKSFNRGEC heavy: not shown | binds | 34200 | ~3 nM | – | – | – |
| TR-A (bispecific antibody, human IgG1, kappa, also called antibody TR-A) light: DIVMTQSPPTLSLSPGERATLSCRSSKSLLHSNGNTYLYWFQQKPGQSPQLLIYRMSNLASGIPDRFSGSGSGTDFTLTISRLEPEDFAVYYCMQHLEYPFTFGQGTKLEIKRTVAAPSVFIFPPSDEQLKSGTASVVCLLNNFYPREAKVQWKVDNALQSGNSQESVTEQDSKDSTYSLSSTLTLSKADYEKHKVYACEVTHQGLSSPVTKSFNRGEC heavy: not shown | binds | 40000 | – | – | – | – |
| TR-D (bispecific antibody, human IgG1, kappa, also called antibody TR-D) light: DIVMTQSPPTLSLSPGERATLSCRSSKSLLHSNGNTYLYWFQQKPGQSPQLLIYRMSNLASGIPDRFSGSGSGTDFTLTISRLEPEDFAVYYCMQHLEYPFTFGQGTKLEIKRTVAAPSVFIFPPSDEQLKSGTASVVCLLNNFYPREAKVQWKVDNALQSGNSQESVTEQDSKDSTYSLSSTLTLSKADYEKHKVYACEVTHQGLSSPVTKSFNRGEC heavy: not shown | binds | 30300 | – | ~0.1 nM | ~2 nM | – |
| anti-TNFR2 control antibody (SEQ ID NO: 52 and SEQ ID NO: 53, constant region of human IgG1 SEQ ID NO: 54 and SEQ ID NO: 55) (antibody, V domains shown, also called positive control 1) VH: EVQLVQSGAEVKKPGATVKISCKVSGYSITDYLLHWVQQAPGKGLEWMGWIDPEDAKTKYGQKFQSRVTITADTSTDTAYMELSSLRSEDTAVYYCAANSGTGTMDAWGQGTLVTVSS VL: DIVMTQSPATLSVSPGERATLSCKASQNVGSNVDWYQQKPGQSPRVLIYKASIRYTGIPARFSGSGSGTEFTLTISILQSEDFAVYFCMQSKSYPITFGQGTKLEIKR | – | – | – | ~0.3 nM | – | – |
| TR-F (bispecific antibody, human IgG1, kappa, also called antibody TR-F) light: EVQLVQSGAEVKKPGATVKISCKVSGYSITDYLLHWVQQAPGKCLEWMGWIDPEDAKTKYGQKFQSRVTITADTSTDTAYMELSSLRSEDTAVYYCAANSGTGTMDAWGQGTLVTVSSGGGGSGGGGSGGGGSDIVMTQSPATLSVSPGERATLSCKASQNVGSNVDWYQQKPGQSPRVLIYKASIRYTGIPARFSGSGSGTEFTLTISILQSEDFAVYFCMQSKSYPITFGCGTKLEIKGGGGSGGGGSGGGGSDIVMTQSPPTLSLSPGERATLSCRSSKSLLHSNGNTYLYWFQQKPGQSPQLLIYRMSNLASGIPDRFSGSGSGTDFTLTISRLEPEDFAVYYCMQHLEYPFTFGQGTKLEIKRTVAAPSVFIFPPSDEQLKSGTASVVCLLNNFYPREAKVQWKVDNALQSGNSQESVTEQDSKDSTYSLSSTLTLSKADYEKHKVYACEVTHQGLSSPVTKSFNRGEC heavy: not shown | binds | 27600 | – | ~0.5 nM | – | – |
| TR-G (bispecific antibody, human IgG1, kappa, also called antibody TR-G) light: DIVMTQSPPTLSLSPGERATLSCRSSKSLLHSNGNTYLYWFQQKPGQSPQLLIYRMSNLASGIPDRFSGSGSGTDFTLTISRLEPEDFAVYYCMQHLEYPFTFGQGTKLEIKRTVAAPSVFIFPPSDEQLKSGTASVVCLLNNFYPREAKVQWKVDNALQSGNSQESVTEQDSKDSTYSLSSTLTLSKADYEKHKVYACEVTHQGLSSPVTKSFNRGECGGGGSGGGGSEVQLVESGGGLVQPGGSLRLSCAASGSRLDYYAVAWFRQAPGKEREEVSCITYSGGSTNYAESVKGRFTISRDNSKNTLYLQMNSLRAEDTAVYYCTTEPYGSSCPLSGYDTWGQGTLVTVSS heavy: not shown | – | 33700 | – | ~1 nM | – | ~0.9 nM |
| anti-CCR8 control antibody (variable region SEQ ID NO: 9 and SEQ ID NO: 13, constant region of human IgG1 SEQ ID NO: 54 and SEQ ID NO: 55) (antibody, V domains shown) VH: EVQLVESGGGLVQPGGSLRLSCAASGFTFNTNAMNWVRQAPGKGLEWVGRIRTKSNNYATYYAESVRDRFTISRDDSKNSLYLQMNSLKTEDTAMYYCVRGGYGIRGEYTMDYWGQGTLVTVSS VL: DIVMTQSPPTLSLSPGERATLSCRSSKSLLHSNGNTYLYWFQQKPGQSPQLLIYRMSNLASGIPDRFSGSGSGTDFTLTISRLEPEDFAVYYCMQHLEYPFTFGQGTKLEIKR | – | – | – | – | – | ~0.3 nM |
| TR-E (bispecific antibody, human IgG1, kappa, also called antibody TR-E) light: DIVMTQSPPTLSLSPGERATLSCRSSKSLLHSNGNTYLYWFQQKPGQSPQLLIYRMSNLASGIPDRFSGSGSGTDFTLTISRLEPEDFAVYYCMQHLEYPFTFGQGTKLEIKRTVAAPSVFIFPPSDEQLKSGTASVVCLLNNFYPREAKVQWKVDNALQSGNSQESVTEQDSKDSTYSLSSTLTLSKADYEKHKVYACEVTHQGLSSPVTKSFNRGECGGGGSGGGGSEVQLVQSGAEVKKPGATVKISCKVSGYSITDYLLHWVQQAPGKCLEWMGWIDPEDAKTKYGQKFQSRVTITADTSTDTAYMELSSLRSEDTAVYYCAANSGTGTMDAWGQGTLVTVSSGGGGSGGGGSGGGGSDIVMTQSPATLSVSPGERATLSCKASQNVGSNVDWYQQKPGQSPRVLIYKASIRYTGIPARFSGSGSGTEFTLTISILQSEDFAVYFCMQSKSYPITFGCGTKLEIK heavy: not shown | – | 61900 | – | – | – | ~1 nM |
| TR-C (bispecific antibody, human IgG1, kappa, also called antibody TR-C) light: DIVMTQSPPTLSLSPGERATLSCRSSKSLLHSNGNTYLYWFQQKPGQSPQLLIYRMSNLASGIPDRFSGSGSGTDFTLTISRLEPEDFAVYYCMQHLEYPFTFGQGTKLEIKRTVAAPSVFIFPPSDEQLKSGTASVVCLLNNFYPREAKVQWKVDNALQSGNSQESVTEQDSKDSTYSLSSTLTLSKADYEKHKVYACEVTHQGLSSPVTKSFNRGEC heavy: not shown | – | 89500 | – | – | – | ~1 nM |
| TR-B (bispecific antibody, human IgG1, kappa, also called antibody TR-B) light: DIVMTQSPPTLSLSPGERATLSCRSSKSLLHSNGNTYLYWFQQKPGQSPQLLIYRMSNLASGIPDRFSGSGSGTDFTLTISRLEPEDFAVYYCMQHLEYPFTFGQGTKLEIKRTVAAPSVFIFPPSDEQLKSGTASVVCLLNNFYPREAKVQWKVDNALQSGNSQESVTEQDSKDSTYSLSSTLTLSKADYEKHKVYACEVTHQGLSSPVTKSFNRGEC heavy: not shown | binds | 29000 | – | – | – | – |
